Here are results for three variants from IntAct's records for PubMed 16858409.

The chains are these.
B1: TNF receptor-associated factor 3 (Mus musculus), Q60803 (parent)
chain: MESSKKMDAAGTLQPNPPLKLQPDRGAGSVLVPEQGGYKEKFVKTVEDKYKCEKCRLVLCNPKQTECGHRFCESCMAALLSSSSPKCTACQESIIKDKVFKDNCCKREILALQVYCRNEGRGCAEQLTLGHLLVHLKNECQFEELPCLRADCKEKVLRKDLRDHVEKACKYREATCSHCKSQVPMIKLQKHEDTDCPCVVVSCPHKCSVQTLLRSELSAHLSECVNAPSTCSFKRYGCVFQGTNQQIKAHEASSAVQHVNLLKEWSNSLEKKVSLLQNESVEKNKSIQSLHNQICSFEIEIERQKEMLRNNESKILHLQRVIDSQAEKLKELDKEIRPFRQNWEEADSMKSSVESLQNRVTELESVDKSAGQAARNTGLLESQLSRHDQMLSVHDIRLADMDLRFQVLETASYNGVLIWKIRDYKRRKQEAVMGKTLSLYSQPFYTGYFGYKMCARVYLNGDGMGKGTHLSLFFVIMRGEYDALLPWPFKQKVTLMLMDQGSSRRHLGDAFKPDPNSSSFKKPTGEMNIASGCPVFVAQTVLENGTYIKDDTIFIKVIVDTSDLPDP
partner: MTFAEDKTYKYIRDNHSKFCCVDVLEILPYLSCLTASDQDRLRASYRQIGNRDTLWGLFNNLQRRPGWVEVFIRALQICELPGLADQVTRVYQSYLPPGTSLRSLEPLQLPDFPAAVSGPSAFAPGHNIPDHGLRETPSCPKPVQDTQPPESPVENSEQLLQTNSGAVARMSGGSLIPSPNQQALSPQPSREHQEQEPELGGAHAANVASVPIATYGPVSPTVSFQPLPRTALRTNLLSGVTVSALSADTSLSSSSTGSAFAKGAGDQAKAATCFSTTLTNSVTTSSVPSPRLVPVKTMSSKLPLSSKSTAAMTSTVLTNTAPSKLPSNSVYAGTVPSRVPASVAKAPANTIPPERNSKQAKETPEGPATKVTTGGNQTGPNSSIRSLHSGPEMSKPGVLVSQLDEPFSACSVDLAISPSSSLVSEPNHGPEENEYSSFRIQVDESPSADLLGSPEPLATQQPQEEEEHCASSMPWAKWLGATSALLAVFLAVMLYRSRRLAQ
B2: Mitochondrial antiviral-signaling protein (Mus musculus), Q8VCF0 (parent)
chain: B1 partner
partner: B1 chain

In one assay the parent is B1. The note with it: with mavs_mouse Mavs.
As to Y440A, the “effect of a mutation on the interaction” value is recorded as “disrupting interaction”.

Q442A: the “effect of a mutation on the interaction” value is “disrupting interaction”.

Variants of B2 are the subject of another assay. The note with it: with traf3_mouse Traf3, Q60803.
T147I: the “effect of a mutation on the interaction” value is given as “disrupting interaction”.
